Test results reported in patent publication WO2018087143A2 (dated 2018).
Residue numbers refer to the chain shown, from its start. Values belong to the binder of their own block, whether it stands above or below them.

Columns and labels:
[1] = target: T1, cynomolgus monkey PD-1-rCD4 (cynomolgus monkey; rat); test: SPR, ratio of KD values, Table 2
[2] = target: T1, cynomolgus monkey PD-1-rCD4; test: SPR (BIAcore T100), IgG2 captured on anti-human Fc, PD-1 injected, 1:1 fit
human PD-1-rCD4 [3] = target: T2, human PD-1-rCD4 (human; rat, UniProt Q15116 25-170; P05540 207-392, limits assumed); test: as above
T2 construct: Analyte in SPR

PD-1-Fc [4] = target: T3, PD-1-Fc (UniProt Q15116 25-167, limits assumed); test: competition ELISA: PD-1-Fc (0.8 nM) premixed with 0.5 nM antibody, added to captured PD-L1-rCD4 (competitor)
T3 construct: not shown: Fc part, detected with anti-human IgG Fc

PD-1-Fc [5] = target: T3, PD-1-Fc; test: competition ELISA: PD-1-Fc (0.8 nM) premixed with 1 nM antibody, added to captured PD-L1-rCD4 (competitor)
[6] = target: PD-1 expressed on Jurkat cells (NFAT-luc2/PD-1 Jurkat Cells, Promega, CS187102) (UniProt Q15116 25-288, limits assumed); test: cell-based or functional assay
PD-1-Fc [7] = target: T3, PD-1-Fc; test: competition ELISA: PD-1-Fc (0.8 nM) premixed with 8 nM antibody, added to captured PD-L1-rCD4 (competitor)
human PD-1-rCD4 [8] = target: T2, human PD-1-rCD4; test: SPR (BIAcore T100), IgG2 captured on anti-human Fc, PD-1 injected, 1:1 fit; Table 1 prints 3.8
mouse PD-1 = target: T4, mouse PD-1 (mouse, UniProt Q02242 25-167, limits assumed); test: SPR (BIAcore T100), IgG2 captured on anti-human Fc, PD-1 injected, 1:1 fit
T4 construct: also called murine PD-1
T4 sequence (looked up): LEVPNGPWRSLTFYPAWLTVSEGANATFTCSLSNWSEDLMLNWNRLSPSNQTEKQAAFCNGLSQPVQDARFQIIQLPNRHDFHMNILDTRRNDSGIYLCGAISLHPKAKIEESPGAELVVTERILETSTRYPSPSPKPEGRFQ

[9] = target: T1, cynomolgus monkey PD-1-rCD4; test: SPR (BIAcore T100), IgG2 captured on anti-human Fc, PD-1 injected, 1:1 fit; Table 1 prints 8.7

T3 sequence (Q15116 25-167 limits assumed): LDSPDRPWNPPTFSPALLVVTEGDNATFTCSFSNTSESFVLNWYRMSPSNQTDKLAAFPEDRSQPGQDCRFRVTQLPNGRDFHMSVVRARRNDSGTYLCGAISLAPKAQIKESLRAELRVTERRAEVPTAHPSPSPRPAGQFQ
T1 sequence (P05540 207-392): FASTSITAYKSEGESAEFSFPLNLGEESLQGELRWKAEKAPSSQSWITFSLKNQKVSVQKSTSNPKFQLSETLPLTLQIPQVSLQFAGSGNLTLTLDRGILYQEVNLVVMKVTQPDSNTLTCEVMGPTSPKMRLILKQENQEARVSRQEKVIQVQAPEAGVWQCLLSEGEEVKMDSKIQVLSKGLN
T2 sequence (Q15116 other isoform, or with tags, fused parts or gaps limits assumed): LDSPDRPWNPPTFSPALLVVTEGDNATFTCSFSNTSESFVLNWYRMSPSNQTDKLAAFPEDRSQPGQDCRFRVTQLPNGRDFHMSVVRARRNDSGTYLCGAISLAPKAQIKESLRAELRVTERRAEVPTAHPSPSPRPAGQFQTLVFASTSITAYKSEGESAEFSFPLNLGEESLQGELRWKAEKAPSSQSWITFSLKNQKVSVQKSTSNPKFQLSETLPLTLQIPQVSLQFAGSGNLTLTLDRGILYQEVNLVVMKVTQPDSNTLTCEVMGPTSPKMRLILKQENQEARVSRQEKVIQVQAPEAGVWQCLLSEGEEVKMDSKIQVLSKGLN
PD-1 expressed on Jurkat cells (NFAT-luc2/PD-1 Jurkat Cells, Promega, CS187102), sequence (Q15116 25-288 limits assumed): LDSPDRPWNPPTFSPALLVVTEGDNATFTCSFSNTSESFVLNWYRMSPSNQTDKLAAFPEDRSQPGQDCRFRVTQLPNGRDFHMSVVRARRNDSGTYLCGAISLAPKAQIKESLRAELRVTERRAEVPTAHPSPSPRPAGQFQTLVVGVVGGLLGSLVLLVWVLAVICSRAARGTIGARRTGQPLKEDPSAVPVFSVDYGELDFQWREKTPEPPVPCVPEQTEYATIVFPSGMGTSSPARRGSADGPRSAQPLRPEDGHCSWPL

Fold Difference (Kd on cynomolgus PD-1 against Kd on human PD-1) [1]: 2.1 fold
Kd [2]: 21 nM
koff [2]: 0.0115 s⁻¹
kon [2]: 548000 M⁻¹ s⁻¹
Kd (human PD-1-rCD4 [3]): 10 nM
koff (human PD-1-rCD4 [3]): 0.0061 s⁻¹
kon (human PD-1-rCD4 [3]): 606000 M⁻¹ s⁻¹
% inhibition of the PD-1/PD-L1 interaction (PD-1-Fc [4]): ~75%
% inhibition of the PD-1/PD-L1 interaction (PD-1-Fc [5]): ~99%
EC50, NFAT-luciferase reporter activity (PD-1/PD-L1 cell reporter assay) [6]: 11.7 nM
% inhibition of the PD-1/PD-L1 interaction (PD-1-Fc [7]): 99%
B1: 273_C01_A12 (antibody, human IgG2, kappa, V domains shown)
VH: EVQLVQSGAEVKKPGSSVKVSCKASGYTFTSYYVHWVRQAPGQGLEWMGGIIPIFGTANYAQKFQGRVTITADESISTAYMELSSLRSEDTAVYYCARDLHGYSYGYPGYWGQGTLVTVSS
VL: DIVMTQSPLSLPVTLGQPASISCRSSQSLVYSDANTYLNWFQQRPGQSPRRLIYEVSNRESGVPDRFSGSGSATDFTLKISRVEAEDVGVYYCMQGTQLPLTFGGGTKVEIKR

Kd (human PD-1-rCD4 [8]): 3.84 nM
Fold Difference (Kd on cynomolgus PD-1 against Kd on human PD-1) [1]: 2.29 fold
Kd [2]: 8.7 nM
koff [2]: 0.0034 s⁻¹
kon [2]: 387000 M⁻¹ s⁻¹
Kd (mouse PD-1): 6400 nM
koff (mouse PD-1): 0.00357 s⁻¹
Kd (human PD-1-rCD4 [3]): 3.8 nM
koff (human PD-1-rCD4 [3]): 0.0015 s⁻¹
kon (human PD-1-rCD4 [3]): 392000 M⁻¹ s⁻¹
% inhibition of the PD-1/PD-L1 interaction (PD-1-Fc [4]): ~75%
% inhibition of the PD-1/PD-L1 interaction (PD-1-Fc [5]): ~99%
EC50, NFAT-luciferase reporter activity (PD-1/PD-L1 cell reporter assay) [6]: 9.35 nM
Kd [9]: 8.77 nM
% inhibition of the PD-1/PD-L1 interaction (PD-1-Fc [7]): 99%
B2: 273_C12_C05 (original clone) (antibody, human IgG2, kappa, V domains shown)
VH: B1 VH with I76T
VL: B1 VL with S32H, A34G, E60D, A73D, T97A, Q98Y, L99R, G105Q

Kd [2]: 5.22 nM
B3: Nivolumab (IgG2 format, as used in the experiments of the filing) (antibody, V domains shown)
VH: QVQLVESGGGVVQPGRSLRLDCKASGITFSNSGMHWVRQAPGKGLEWVAVIWYDGSKRYYADSVKGRFTISRDNSKNTLFLQMNSLRAEDTAVYYCATNDDYWGQGTLVTVSS
VL: EIVLTQSPATLSLSPGERATLSCRASQSVSSYLAWYQQKPGQAPRLLIYDASNRATGIPARFSGSGSGTDFTLTISSLEPEDFAVYYCQQSSNWPRTFGQGTKVEIKR
